The text below walks through data of the RNAGym collection of RNA variant scans (doi:10.7554/elife.80360).

Sequences and labels used below:
B1: HDV Ribozyme (parent)
chain: GGCCGGCAUGGUCCCAGCCUCCUCGCUGGCGCCGGCUGGGCAACAUUCCGAGGGGACCGUCCCCUCGGUAAUGGCGAAUGGGACCCA

Variants of B1 are the subject of the data set. The experiment in a line: self-cleavage, relative activity (ratio to wild type); higher = more cleavage; co-transcriptional.
Regarding GGCCGGCAUGGUCCCAGCCUCCUCGCUGGCGCCGGCUGGGCAACAUUCCGAGGGGAACGUCCCCUCGGUAAUGGCAAAUGGGACCCA [C57A G76A], the self-cleavage worked out at 1.18. The value for GGCCGGCAUGGUCCCAGCCUCCUCGCUGGCGCCGGCUGGGCAACAUUCCGAGGGGAACGUCCCCUCGGUAAUGGCCAAUGGGACCCA [C57A G76C] was 1.05; that for GGCCGGCAUGGUCCCAGCCUCCUCGCUGGCGCCGGCUGGGCAACAUUCCGAGGGGAUCGUCCCCUCGGUAAUGGCGUAUGGGACCCA [C57U A77U] was 0.648; that for GGCCGGCAUGGUCCCAGCCUCCUCGCUGGCGCCGGCUGGGCAACAUUCCGAGGGGAUCGUCCCCUCGGUAAUGGCGGAUGGGACCCA [C57U A77G] was 0.941. The value for GGCCGGCAUGGUCCCAGCCUCCUCGCUGGCGCCGGCUGGGCAACAUUCCGAGGGGAGCGUCCCCUCGGUAAUGCCGAAUGGGACCCA [C57G G74C] was 0.446; that for GGCCGGCAUGGUCCCAGCCUCCUCGCUGGCGCCGGCUGGGCAACAUUCCGAGGGGAACGUCGCCUCGGUAAUGGCGAAUGGGACCCA [C57A C62G] was 0.85. With GGCCGGCAUGGUCCCAGCCUCCUCGCUGGCGCCGGCUGGGCAACAUUCCGAGGGGAACGUCUCCUCGGUAAUGGCGAAUGGGACCCA [C57A C62U] the figure was 1.06.

For GGCCGGCAUGGUCCCAGCCUCCUCGCUGGCGCCGGCUGGGCAACAUUCCGAGGGGAACGUCCCCUCGGUAAAGGCGAAUGGGACCCA [C57A U72A], the self-cleavage amounted to 0.674. With GGCCGGCAUGGUCCCAGCCUCCUCGCUGGCGCCGGCUGGGCAACAUUCCGAGGGGAUGGUCCCCUCGGUAAUGGCGAAUGGGACCCA [C57U C58G] the figure was 0.762. With GGCCGGCAUGGUCCCAGCCUCCUCGCUGGCGCCGGCUGGGCAACAUUCCGAGGGGAGCGUCCCCUCGGUAAUGGCGAGUGGGACCCA [C57G A78G] the figure was 0.629.

GGCCGGCAUGGUCCCAGCCUCCUCGCUGGCGCCGGCUGGGCAACAUUCCGAGGGGAACGUCCCCUCGGUAAUGGCGAAUGGGCCCCA [C57A A83C]: the self-cleavage turned out to be 0.684. With GGCCGGCAUGGUCCCAGCCUCCUCGCUGGCGCCGGCUGGGCAACAUUCCGAGGGGAUCGUCCCCUCGGUAAUGGAGAAUGGGACCCA [C57U C75A] the figure was 0.095. The value for GGCCGGCAUGGUCCCAGCCUCCUCGCUGGCGCCGGCUGGGCAACAUUCCGAGGGGAUCGUCCCCUCGGUAAUGGGGAAUGGGACCCA [C57U C75G] was 0.0369; that for GGCCGGCAUGGUCCCAGCCUCCUCGCUGGCGCCGGCUGGGCAACAUUCCGAGGGGAACGCCCCCUCGGUAAUGGCGAAUGGGACCCA [C57A U60C] was 1.01. With GGCCGGCAUGGUCCCAGCCUCCUCGCUGGCGCCGGCUGGGCAACAUUCCGAGGGGAACGACCCCUCGGUAAUGGCGAAUGGGACCCA [C57A U60A] the figure was 0.898; with GGCCGGCAUGGUCCCAGCCUCCUCGCUGGCGCCGGCUGGGCAACAUUCCGAGGGGAGUGUCCCCUCGGUAAUGGCGAAUGGGACCCA [C57G C58U], 1.07; with GGCCGGCAUGGUCCCAGCCUCCUCGCUGGCGCCGGCUGGGCAACAUUCCGAGGGGUCCGUCCCCUCGCUAAUGGCGAAUGGGACCCA [A56U G68C], 0.872. Consider GGCCGGCAUGGUCCCAGCCUCCUCGCUGGCGCCGGCUGGGCAACAUUCCGAGGGGAGCGUCCCCGCGGUAAUGGCGAAUGGGACCCA [C57G U65G], for which the self-cleavage was determined as 0.85. For the variant GGCCGGCAUGGUCCCAGCCUCCUCGCUGGCGCCGGCUGGGCAACAUUCCGAGGGGAGCGUCCCCUCGGUAAUGGCGAAUGGGACCCU [C57G A87U], the self-cleavage worked out at 0.861. With GGCCGGCAUGGUCCCAGCCUCCUCGCUGGCGCCGGCUGGGCAACAUUCCGAGGGGAUCGUCCCCUCGGUAGUGGCGAAUGGGACCCA [C57U A71G] the figure was 1.12. Take GGCCGGCAUGGUCCCAGCCUCCUCGCUGGCGCCGGCUGGGCAACAUUCCGAGGGGAGCGUCCACUCGGUAAUGGCGAAUGGGACCCA [C57G C63A]: the self-cleavage is 0.956. With GGCCGGCAUGGUCCCAGCCUCCUCGCUGGCGCCGGCUGGGCAACAUUCCGAGGGGAACGUCCCUUCGGUAAUGGCGAAUGGGACCCA [C57A C64U] the figure was 1; with GGCCGGCAUGGUCCCAGCCUCCUCGCUGGCGCCGGCUGGGCAACAUUCCGAGGGGUCCGUCCCCUCGGUAAUGGCGAAUGGGACUCA [A56U C85U], 1.12.

With GGCCGGCAUGGUCCCAGCCUCCUCGCUGGCGCCGGCUGGGCAACAUUCCGAGGGGAUCGUCCCCUCGGUAAUGGCGACUGGGACCCA [C57U A78C], the self-cleavage came out at 0.312. With GGCCGGCAUGGUCCCAGCCUCCUCGCUGGCGCCGGCUGGGCAACAUUCCGAGGGGAGCGUUCCCUCGGUAAUGGCGAAUGGGACCCA [C57G C61U] the figure was 0.967.

As for GGCCGGCAUGGUCCCAGCCUCCUCGCUGGCGCCGGCUGGGCAACAUUCCGAGGGGAGCGUCCCCUCGGUAAUGGCGAAUGCGACCCA [C57G G81C], the self-cleavage turned out to be 0.177. With GGCCGGCAUGGUCCCAGCCUCCUCGCUGGCGCCGGCUGGGCAACAUUCCGAGGGGAACGUACCCUCGGUAAUGGCGAAUGGGACCCA [C57A C61A] the figure was 1.05; with GGCCGGCAUGGUCCCAGCCUCCUCGCUGGCGCCGGCUGGGCAACAUUCCGAGGGGAACGUCCCCUCGGUAGUGGCGAAUGGGACCCA [C57A A71G], 0.98; with GGCCGGCAUGGUCCCAGCCUCCUCGCUGGCGCCGGCUGGGCAACAUUCCGAGGGGAGCGUCCCCUCGGUAAUGGCGAAUCGGACCCA [C57G G80C], 0.125. The value for GGCCGGCAUGGUCCCAGCCUCCUCGCUGGCGCCGGCUGGGCAACAUUCCGAGGGGAACGUCCCCUCUGUAAUGGCGAAUGGGACCCA [C57A G67U] was 1.06; that for GGCCGGCAUGGUCCCAGCCUCCUCGCUGGCGCCGGCUGGGCAACAUUCCGAGGGGAACGUCCCCUCGGUAAUGGCGUAUGGGACCCA [C57A A77U] was 0.486; that for GGCCGGCAUGGUCCCAGCCUCCUCGCUGGCGCCGGCUGGGCAACAUUCCGAGGGGAACGUCCCCUCGGUAAUGGCGCAUGGGACCCA [C57A A77C] was 0.314.
